Data on 2 molecules can be found in publication PMC2766932 (Biochemistry, 2009).

Where a chain is given by its changes, count along the chain named. Names may count otherwise.

Targets include MBP-3 D260A; MBP-3 S287D; MBP-3 S246D; MBP-3 S287A; MBP-3 S279A.
Holding throughout (assay): pull-down
The next experiment deals with T1, MBP-3 Q243A.
T1 chain: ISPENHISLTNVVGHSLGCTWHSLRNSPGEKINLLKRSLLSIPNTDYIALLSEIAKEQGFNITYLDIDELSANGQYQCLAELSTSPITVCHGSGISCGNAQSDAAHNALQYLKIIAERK

The target in a further experiment is T2, MBP-3 D262A.
T2 chain: T1 chain with A49Q, D68A

Regarding “PKR (K296R)-FLAG (from UniProt P19525 1-551) (enzyme)”, the PKR bound, percent of wt MBP-3 worked out at 63% with MBP-3 D260A; 95% with MBP-3 S287D; 100% in the experiment with MBP-3 S246D; 59% with MBP-3 S287A; 23% in the experiment with MBP-3 S279A.

B1: PKR (K296R)-FLAG (enzyme, UniProt P19525 1-551, looked up)
chain: MAGDLSAGFFMEELNTYRQKQGVVLKYQELPNSGPPHDRRFTFQVIIDGREFPEGEGRSKKEAKNAAAKLAVEILNKEKKAVSPLLLTTTNSSEGLSMGNYIGLINRIAQKKRLTVNYEQCASGVHGPEGFHYKCKMGQKEYSIGTGSTKQEAKQLAAKLAYLQILSEETSVKSDYLSSGSFATTCESQSNSLVTSTLASESSSEGDFSADTSEINSNSDSLNSSSLLMNGLRNNQRKAKRSLAPRFDLPDMKETKYTVDKRFGMDFKEIELIGSGGFGQVFKAKHRIDGKTYVIRRVKYNNEKAEREVKALAKLDHVNIVHYNGCWDGFDYDPETSDDSLESSDYDPENSKNSSRSKTKCLFIQMEFCDKGTLEQWIEKRRGEKLDKVLALELFEQITKGVDYIHSKKLIHRDLKPSNIFLVDTKQVKIGDFGLVTSLKNDGKRTRSKGTLRYMSPEQISSQDYGKEVDLYALGLILAELLHVCDTAFETSKFFTDLRDGIISDIFDKKEKTLLQKLLSKKPEDRPNTSEILRTLTVWKKSPEKNERHTC
B1: the “PKR bound, percent of wt MBP-3” value with MBP-3 Q243A is 9%; with MBP-3 D262A, 2%.
